This is an account of results in US20210017279A1 (NANJING LEGEND BIOTECH, published 2021).

To fix the notation:
T1: Human LAG-3-His (human, UniProt P18627 29-450)
T1 construct: Bought recombinant protein; also called Human LAG-3 protein (Acrobiosystem, 772-6BGF2-D5); not shown: His tag
T1 sequence: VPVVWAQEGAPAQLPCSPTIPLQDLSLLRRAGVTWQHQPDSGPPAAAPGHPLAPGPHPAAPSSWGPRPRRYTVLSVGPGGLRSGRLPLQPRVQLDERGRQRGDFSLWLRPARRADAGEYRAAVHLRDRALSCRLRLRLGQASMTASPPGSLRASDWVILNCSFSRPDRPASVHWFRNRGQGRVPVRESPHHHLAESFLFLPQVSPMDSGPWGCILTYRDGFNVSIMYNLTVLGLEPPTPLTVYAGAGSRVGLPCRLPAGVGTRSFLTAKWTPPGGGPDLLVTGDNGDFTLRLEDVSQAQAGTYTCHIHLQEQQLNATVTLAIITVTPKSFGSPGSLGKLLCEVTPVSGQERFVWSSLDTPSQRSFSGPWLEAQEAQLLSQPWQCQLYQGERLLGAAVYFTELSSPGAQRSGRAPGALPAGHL

T2: human LAG-3 expressed on CHO-K1 cells (human, UniProt P18627 29-525)
T2 construct: also called CHO-huLAG-3 cells; LAG-3 expressed on CHO cells
T2 sequence: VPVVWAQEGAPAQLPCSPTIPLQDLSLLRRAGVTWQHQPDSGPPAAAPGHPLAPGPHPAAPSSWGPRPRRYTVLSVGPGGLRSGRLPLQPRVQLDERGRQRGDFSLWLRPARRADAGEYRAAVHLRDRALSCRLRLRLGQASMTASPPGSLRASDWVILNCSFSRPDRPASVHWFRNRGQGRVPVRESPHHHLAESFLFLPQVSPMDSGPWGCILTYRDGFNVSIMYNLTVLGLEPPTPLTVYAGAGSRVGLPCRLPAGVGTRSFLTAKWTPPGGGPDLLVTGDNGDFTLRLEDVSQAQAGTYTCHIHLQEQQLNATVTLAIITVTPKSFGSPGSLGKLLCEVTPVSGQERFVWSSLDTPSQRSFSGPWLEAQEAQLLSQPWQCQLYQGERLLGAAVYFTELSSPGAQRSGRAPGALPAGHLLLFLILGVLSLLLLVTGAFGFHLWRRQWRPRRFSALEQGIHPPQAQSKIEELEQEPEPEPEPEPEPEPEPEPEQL

T3: LAG-3-Fc (human, UniProt P18627 29-450, biotinylated (in the blocking assays))
T3 construct: Recombinant LAG-3-Fc (Acrobiosystems / R&D Systems); also called biotinylated LAG-3-Fc protein; not shown: Fc part
T3 sequence: T1 sequence

B1: PD1-BM-min (antibody, human IgG4 S228P, kappa, V domains shown)
VH: EVQLVESGGGLVQPGGSLRLSCAASGFVFSRYDMAWVRQAPGKGLEWVSFISGGGSNTYYPDTVKGRFTISRDNSKNTLYLQMNSLRAEDTAVYYCISPYYYAMEYWGQGTTVTVSS
VL: DIQMTQSPSSVSASVGDRVTITCKASQDVDTAVAWYQQKPGKAPKLLIYWASTRHTGVPSRFSGSGSGTDFTLTISSLQPEDFATYYCQQYSTFPWTFGGGTKVEIKR
notes: Full-length anti-PD-1 antibody, parental element of the BLP constructs; also called PD-BM-min; anti-PD-1 full-length antibody
B2: BLP-34 (bispecific antibody, human IgG4 S228P, kappa)
heavy: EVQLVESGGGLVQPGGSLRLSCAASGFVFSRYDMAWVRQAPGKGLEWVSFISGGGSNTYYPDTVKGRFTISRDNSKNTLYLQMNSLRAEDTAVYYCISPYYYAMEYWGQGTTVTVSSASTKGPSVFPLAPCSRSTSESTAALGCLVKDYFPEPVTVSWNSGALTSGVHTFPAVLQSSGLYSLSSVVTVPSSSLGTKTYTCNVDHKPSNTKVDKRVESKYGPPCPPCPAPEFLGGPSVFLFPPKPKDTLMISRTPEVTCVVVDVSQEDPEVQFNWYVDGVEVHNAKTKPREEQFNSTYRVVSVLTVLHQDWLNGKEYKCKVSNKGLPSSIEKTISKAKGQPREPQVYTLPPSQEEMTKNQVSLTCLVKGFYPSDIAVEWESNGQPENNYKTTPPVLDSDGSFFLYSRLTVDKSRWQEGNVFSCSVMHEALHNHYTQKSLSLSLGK
light: EPKSSDKTHTSPPSPEVQLVESGGGLVQPGGSLRLSCAASGYIISSYCMGWFRQAPGKGLEGVAAIDSDGGTSYADSVKGRFTISKDNSKNTLYLQMNSLRAEDTAMYYCAADFCWVDEDRHLYEYNSWGQGTLVTVSSDIQMTQSPSSVSASVGDRVTITCKASQDVDTAVAWYQQKPGKAPKLLIYWASTRHTGVPSRFSGSGSGTDFTLTISSLQPEDFATYYCQQYSTFPWTFGGGTKVEIKRTVAAPSVFIFPPSDEQLKSGTASVVCLLNNFYPREAKVQWKVDNALQSGNSQESVTEQDSKDSTYSLSSTLTLSKADYEKHKVYACEVTHQGLSSPVTKSFNRGEC
notes: also called PD-1 x LAG-3 BABP
B3: BLP-19 (bispecific antibody, human IgG4 S228P, kappa)
heavy: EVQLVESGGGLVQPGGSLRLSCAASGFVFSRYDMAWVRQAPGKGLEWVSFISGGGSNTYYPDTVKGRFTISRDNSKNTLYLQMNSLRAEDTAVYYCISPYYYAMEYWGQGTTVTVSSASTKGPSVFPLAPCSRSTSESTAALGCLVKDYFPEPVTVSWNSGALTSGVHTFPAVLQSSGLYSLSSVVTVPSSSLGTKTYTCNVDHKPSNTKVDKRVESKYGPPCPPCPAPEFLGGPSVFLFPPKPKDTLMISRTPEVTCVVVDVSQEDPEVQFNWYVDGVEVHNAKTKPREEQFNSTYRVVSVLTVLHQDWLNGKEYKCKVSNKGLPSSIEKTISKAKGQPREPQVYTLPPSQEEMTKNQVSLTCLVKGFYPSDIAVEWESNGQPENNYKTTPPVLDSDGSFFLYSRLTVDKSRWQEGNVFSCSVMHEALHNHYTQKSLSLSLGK
light: EVQLVESGGGLVQPGGSLRLSCAASGYTYGGYCMGWFRQAPGKGLEGVSTINSDGSTNYADSVKGRFTISRDNSKNTLYLQMNSLRAEDTAVYYCAVDLAPCWVAGPIEAADFGYWGQGTLVTVSSEPKSSDKTHTSPPSPDIQMTQSPSSVSASVGDRVTITCKASQDVDTAVAWYQQKPGKAPKLLIYWASTRHTGVPSRFSGSGSGTDFTLTISSLQPEDFATYYCQQYSTFPWTFGGGTKVEIKRTVAAPSVFIFPPSDEQLKSGTASVVCLLNNFYPREAKVQWKVDNALQSGNSQESVTEQDSKDSTYSLSSTLTLSKADYEKHKVYACEVTHQGLSSPVTKSFNRGEC
notes: also called PD-1 x LAG-3 BABP
B4: BLP-15 (bispecific antibody, human IgG4 S228P, kappa)
heavy: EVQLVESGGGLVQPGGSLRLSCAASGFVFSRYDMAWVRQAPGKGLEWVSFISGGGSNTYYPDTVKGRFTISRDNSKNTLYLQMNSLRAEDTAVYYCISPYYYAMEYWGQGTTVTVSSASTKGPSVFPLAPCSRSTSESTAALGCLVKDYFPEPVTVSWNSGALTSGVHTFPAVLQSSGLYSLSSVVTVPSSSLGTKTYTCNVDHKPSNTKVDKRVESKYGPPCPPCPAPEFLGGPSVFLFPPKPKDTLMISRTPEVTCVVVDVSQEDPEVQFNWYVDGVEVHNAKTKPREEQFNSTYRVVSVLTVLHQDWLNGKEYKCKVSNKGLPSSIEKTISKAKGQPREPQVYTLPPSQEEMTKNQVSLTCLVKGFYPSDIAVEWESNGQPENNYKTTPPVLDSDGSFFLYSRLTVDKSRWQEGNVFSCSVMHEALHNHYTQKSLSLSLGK
light: EVQLVESGGGLVQPGGSLRLSCAASGYTVSSYCMGWFRQAPGKGREGVSAIDSDGSVSYADSVKGRFTISKDNSKNTLYLQMNSLRAEDTAVYFCAADLCWVDQDQGEYNTWGQGTLVTVSSEPKSSDKTHTSPPSPDIQMTQSPSSVSASVGDRVTITCKASQDVDTAVAWYQQKPGKAPKLLIYWASTRHTGVPSRFSGSGSGTDFTLTISSLQPEDFATYYCQQYSTFPWTFGGGTKVEIKRTVAAPSVFIFPPSDEQLKSGTASVVCLLNNFYPREAKVQWKVDNALQSGNSQESVTEQDSKDSTYSLSSTLTLSKADYEKHKVYACEVTHQGLSSPVTKSFNRGEC
notes: also called PD-1 x LAG-3 BABP
B5: BLP-38 (bispecific antibody, human IgG4 S228P, kappa)
heavy: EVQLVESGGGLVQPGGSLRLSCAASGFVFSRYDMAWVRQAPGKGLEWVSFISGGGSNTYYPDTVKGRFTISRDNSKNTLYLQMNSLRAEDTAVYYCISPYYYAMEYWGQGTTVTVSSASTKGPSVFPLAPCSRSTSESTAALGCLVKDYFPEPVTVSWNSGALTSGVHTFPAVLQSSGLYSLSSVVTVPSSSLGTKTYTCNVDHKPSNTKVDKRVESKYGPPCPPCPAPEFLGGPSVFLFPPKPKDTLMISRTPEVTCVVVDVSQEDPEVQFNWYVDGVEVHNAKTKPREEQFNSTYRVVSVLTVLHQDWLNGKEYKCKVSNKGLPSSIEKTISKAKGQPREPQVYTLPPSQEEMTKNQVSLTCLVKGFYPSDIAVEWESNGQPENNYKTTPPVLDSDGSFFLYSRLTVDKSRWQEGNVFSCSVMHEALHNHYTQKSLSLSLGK
light: EPKSSDKTHTSPPSPEVQLVESGGGLVQPGGSLRLSCAASGYTVSSYCMGWFRQAPGKGREGVSAIDSDGSVSYADSVKGRFTISKDNSKNTLYLQMNSLRAEDTAVYFCAADLCWVDQDQGEYNTWGQGTLVTVSSDIQMTQSPSSVSASVGDRVTITCKASQDVDTAVAWYQQKPGKAPKLLIYWASTRHTGVPSRFSGSGSGTDFTLTISSLQPEDFATYYCQQYSTFPWTFGGGTKVEIKRTVAAPSVFIFPPSDEQLKSGTASVVCLLNNFYPREAKVQWKVDNALQSGNSQESVTEQDSKDSTYSLSSTLTLSKADYEKHKVYACEVTHQGLSSPVTKSFNRGEC
notes: also called PD-1 x LAG-3 BABP
B6: BLP-2 (bispecific antibody, human IgG4 S228P, kappa)
heavy: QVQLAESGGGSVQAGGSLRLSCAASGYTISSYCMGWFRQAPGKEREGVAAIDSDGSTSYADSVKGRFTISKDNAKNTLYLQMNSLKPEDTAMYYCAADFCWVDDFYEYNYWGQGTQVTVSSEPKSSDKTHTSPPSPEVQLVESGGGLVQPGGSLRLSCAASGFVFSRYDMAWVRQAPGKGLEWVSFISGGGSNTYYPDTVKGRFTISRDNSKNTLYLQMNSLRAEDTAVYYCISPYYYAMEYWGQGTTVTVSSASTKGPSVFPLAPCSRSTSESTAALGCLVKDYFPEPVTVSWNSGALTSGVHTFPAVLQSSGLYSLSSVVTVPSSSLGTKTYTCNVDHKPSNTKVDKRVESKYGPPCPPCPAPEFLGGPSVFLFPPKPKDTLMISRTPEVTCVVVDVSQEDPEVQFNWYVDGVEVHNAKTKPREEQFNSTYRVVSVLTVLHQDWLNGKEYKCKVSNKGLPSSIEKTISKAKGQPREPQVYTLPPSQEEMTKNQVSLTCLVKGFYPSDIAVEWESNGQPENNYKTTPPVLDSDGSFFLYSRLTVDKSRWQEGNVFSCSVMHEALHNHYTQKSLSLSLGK
light: DIQMTQSPSSVSASVGDRVTITCKASQDVDTAVAWYQQKPGKAPKLLIYWASTRHTGVPSRFSGSGSGTDFTLTISSLQPEDFATYYCQQYSTFPWTFGGGTKVEIKRTVAAPSVFIFPPSDEQLKSGTASVVCLLNNFYPREAKVQWKVDNALQSGNSQESVTEQDSKDSTYSLSSTLTLSKADYEKHKVYACEVTHQGLSSPVTKSFNRGEC
notes: also called PD-1 x LAG-3 proof-of-concept BABP
B7: BLP-4 (bispecific antibody, human IgG4 S228P, kappa)
heavy: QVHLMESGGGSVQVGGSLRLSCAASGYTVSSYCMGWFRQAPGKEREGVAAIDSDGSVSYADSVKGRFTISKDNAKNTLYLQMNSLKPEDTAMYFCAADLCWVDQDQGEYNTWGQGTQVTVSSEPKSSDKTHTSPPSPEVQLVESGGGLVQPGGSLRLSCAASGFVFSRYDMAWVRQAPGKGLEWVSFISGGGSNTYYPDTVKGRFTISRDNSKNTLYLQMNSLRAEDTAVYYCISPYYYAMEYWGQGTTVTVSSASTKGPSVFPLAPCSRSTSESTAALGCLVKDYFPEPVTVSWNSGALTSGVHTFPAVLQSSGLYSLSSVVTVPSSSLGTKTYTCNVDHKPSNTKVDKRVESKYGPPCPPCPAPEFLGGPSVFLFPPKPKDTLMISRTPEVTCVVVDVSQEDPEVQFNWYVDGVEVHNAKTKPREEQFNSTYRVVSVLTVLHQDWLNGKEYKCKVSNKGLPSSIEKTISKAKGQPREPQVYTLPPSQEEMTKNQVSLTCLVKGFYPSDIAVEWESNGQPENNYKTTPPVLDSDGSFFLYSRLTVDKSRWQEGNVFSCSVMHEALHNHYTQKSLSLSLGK
light: B6 light
notes: as for B6
B8: BLP-3 (bispecific antibody, human IgG4 S228P, kappa)
heavy: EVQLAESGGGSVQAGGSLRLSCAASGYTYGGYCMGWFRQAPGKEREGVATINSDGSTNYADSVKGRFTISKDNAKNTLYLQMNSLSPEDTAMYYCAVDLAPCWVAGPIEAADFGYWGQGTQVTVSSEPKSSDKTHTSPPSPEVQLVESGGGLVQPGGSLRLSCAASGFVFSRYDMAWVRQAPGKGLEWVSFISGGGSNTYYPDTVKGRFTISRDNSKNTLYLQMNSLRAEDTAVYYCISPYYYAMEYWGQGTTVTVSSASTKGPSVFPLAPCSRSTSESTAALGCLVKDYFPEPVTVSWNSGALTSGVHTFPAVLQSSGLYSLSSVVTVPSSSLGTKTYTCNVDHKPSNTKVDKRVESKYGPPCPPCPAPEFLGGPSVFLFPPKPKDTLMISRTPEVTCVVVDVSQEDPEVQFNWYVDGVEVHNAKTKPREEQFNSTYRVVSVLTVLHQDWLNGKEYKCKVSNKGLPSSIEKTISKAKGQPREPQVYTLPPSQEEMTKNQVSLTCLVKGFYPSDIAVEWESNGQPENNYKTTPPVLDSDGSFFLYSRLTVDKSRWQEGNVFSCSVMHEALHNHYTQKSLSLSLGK
light: B6 light
notes: as for B6
B9: Pembrolizumab (antibody, human IgG4 S228P, kappa, V domains shown)
VH: QVQLVQSGVEVKKPGASVKVSCKASGYTFTNYYMYWVRQAPGQGLEWMGGINPSNGGTNFNEKFKNRVTLTTDSSTTTAYMELKSLQFDDTAVYYCARRDYRFDMGFDYWGQGTTVTVSS
VL: EIVLTQSPATLSLSPGERATLSCRASKGVSTSGYSYLHWYQQKPGQAPRLLIYLASYLESGVPARFSGSGSGTDFTLTISSLEPEDFAVYYCQHSRDLPLTFGGGTKVEIKR

Several values for one entry are separate records, joined by “and”; a condition that tells them apart may be missing. Equal entries are not always repeated.

One experiment deals with T4, Human PD-1 (human, UniProt Q15116 25-167, limits assumed). Briefly: SPR (Biacore T200), as in Example 3; Experiment 2. In general terms: Surface plasmon resonance follows binding to a sensor surface in real time, without labels.
T4 sequence (Q15116 25-167 limits assumed): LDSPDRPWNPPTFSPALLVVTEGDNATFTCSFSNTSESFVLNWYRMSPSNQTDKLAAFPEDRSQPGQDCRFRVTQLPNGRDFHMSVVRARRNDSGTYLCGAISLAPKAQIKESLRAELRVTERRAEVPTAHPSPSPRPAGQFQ
As for B1, the Kd (in general, the free concentration of one partner at which half of the binding sites on the other are occupied at equilibrium, for simple one-to-one binding) was 2.3 nM.

B2 displayed a Kd of 3.1 nM. The Kd values of the last two molecules are within 1.5-fold of each other.

In turn, B3 came in with a dissociation constant Kd of 4 nM.

For B4, the Kd is 4.4 nM.

Turning to B5, the dissociation constant (Kd) amounted to 2.5 nM. This Kd is about 1.8-fold lower than that of the molecule before.

The target of a further experiment is T1, Human LAG-3-His. The experiment can be described thus: SPR (Biacore T200), as in Example 3; Experiment 2.
Take B2: the Kd was 3.7 nM.

Turning to B3, binding was put at a Kd of 1.4 nM.

The target of a further experiment is T5, PD-1 expressed on CHO cells (UniProt Q15116 25-288, limits assumed).
T5 construct: whole, on cells; also called CHO-PD-1 cells
T5 sequence (Q15116 25-288 limits assumed): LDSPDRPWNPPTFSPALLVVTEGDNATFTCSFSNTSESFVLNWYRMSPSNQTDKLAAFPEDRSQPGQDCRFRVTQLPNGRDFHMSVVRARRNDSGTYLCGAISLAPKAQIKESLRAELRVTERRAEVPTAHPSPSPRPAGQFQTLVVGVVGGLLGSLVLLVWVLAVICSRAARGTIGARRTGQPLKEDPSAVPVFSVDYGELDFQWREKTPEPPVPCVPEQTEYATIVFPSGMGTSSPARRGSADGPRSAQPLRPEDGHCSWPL
The experiment can be described thus: flow cytometry competition; blocks PD-L1 binding to CHO-PD-1 cells; Experiment 2. (In flow cytometry, cells or beads pass a laser one at a time.)
Take B1: the EC50 (as a rule, the concentration at which the effect is half-maximal) was 9.56 nM.

The molecule B2 yielded a half-maximal effective concentration (EC50) of 13.8 nM.

As for B3, the concentration for a half-maximal effect (EC50) turned out to be 21 nM. This EC50 is about 1.5-fold higher than that of the molecule before.

For B4, the midpoint of the response, the EC50, lay at 18.5 nM.

As for B5, a half-maximal effect (EC50) was put at 12.4 nM.

The next experiment has as its target T5, PD-1 expressed on CHO cells. Briefly: flow cytometry competition; blocks PD-L1 binding to CHO-PD-1 cells; Experiment 1.
B1 registered an EC50 of 1.72 nM.

With B6, the midpoint of the response, the EC50, lay at 3.2 nM.

B7 returned a concentration giving a half-maximal response (EC50) of 2.58 nM. The EC50 values of the last two molecules are within 1.5-fold of each other.

As for B8, the EC50 was 4.38 nM.

The target in another experiment is T4, Human PD-1. The experiment can be described thus: SPR (Biacore T200), as in Example 3; Experiment 1.
The molecule B1 had a Kd of 1.4 nM. In other words, the single-digit nanomolar range.

In turn, B6 registered a Kd of 4.4 nM.

On to B7, for which the dissociation constant Kd is 4.5 nM.

B8 gave a dissociation constant (Kd) of 2 nM.

A further experiment has as its target T5, PD-1 expressed on CHO cells. Briefly: flow cytometry on CHO cells expressing PD-1; Experiment 1.
B1 returned an EC50 of 2.44 nM.

On to B6, for which the midpoint of the response, the EC50, lay at 4.29 nM. Against the preceding molecule, the EC50 is about 1.8-fold higher.

B7 came in with an EC50 of 3.51 nM. This EC50 and that of the molecule before are within 1.5-fold of each other.

Regarding B8, the EC50 was found to be 4.64 nM.

Another experiment has as its target T2, human LAG-3 expressed on CHO-K1 cells. Briefly: flow cytometry on CHO cells expressing LAG-3; Experiment 2. The method, then:
To determine cell binding EC₅₀, CHO-K1 cells expressing human or cynomolgus LAG-3 were harvested and incubated with anti-LAG-3 sdAb-Fc fusion proteins at gradient concentrations, followed by fluorophore-labeled secondary antibodies against human Fc. […] The samples were then analyzed with flow cytometry. The binding and blocking curves were shown in FIG. 4 and FIG. 5, respectively.
For B2, the response was half-maximal at 3.12 nM (EC50).

For B3, a half-maximal response (EC50) required 13.5 nM.

In another experiment the target is T3, LAG-3-Fc. Briefly: flow cytometry competition; blocks LAG-3-Fc binding to MHC II on A375 cells; Experiment 2.
The molecule B2 displayed an EC50 of 37.1 nM.

Molecule B3 registered a half-maximal effective concentration (EC50) of 44.6 nM.

Another experiment has as its target T5, PD-1 expressed on CHO cells. Briefly: flow cytometry on CHO cells expressing PD-1; Experiment 2.
Regarding B1, the EC50 worked out at 6.27 nM.

In the case of B2, a half-maximal effect (EC50) was put at 12.5 nM.

On to B3, for which the midpoint of the response, the EC50, lay at 14.6 nM. This EC50 and that of the molecule before are within 1.5-fold of each other.

B4 showed an EC50 of 13.7 nM. The EC50 values of the last two molecules are within 1.5-fold of each other.

In turn, B5 yielded an EC50 of 8.51 nM.

The target in the next experiment is PD-1 in the PD-1 cell based reporter assay. The experiment can be described thus: cell-based or functional assay.
As for B1, the “PD-1 cell based reporter assay EC50” value is 1.34 nM and 1.21 nM.

With B2, the “PD-1 cell based reporter assay EC50” value was found to be 2.77 nM.

As to B3, the “PD-1 cell based reporter assay EC50” value is 3.65 nM.

For B4, the “PD-1 cell based reporter assay EC50” value worked out at 3.32 nM.

Regarding B9, the “PD-1 cell based reporter assay EC50” value was 1.15 nM.

As to B5, the “PD-1 cell based reporter assay EC50” value came to 1.25 nM.

For the molecule B6, the “PD-1 cell based reporter assay EC50” value was determined as 5.14 nM.

In the case of B7, the “PD-1 cell based reporter assay EC50” value was 5.94 nM.

B8: the “PD-1 cell based reporter assay EC50” value turned out to be 5.92 nM.

For the next experiment, the target named is LAG-3 on Thaw-and-Use LAG-3 Effector cells. Briefly: cell-based or functional assay.
For the molecule B2, the “LAG-3 blockade reporter assay EC50” value amounted to 15.8 nM.

For B3, the “LAG-3 blockade reporter assay EC50” value was 1.57 nM.

In the case of B4, the “LAG-3 blockade reporter assay EC50” value is 5.12 nM.

As for B5, the “LAG-3 blockade reporter assay EC50” value stood at 3.83 nM.

Turning to B6, the “LAG-3 blockade reporter assay EC50” value is 2.04 nM.

As to B7, the “LAG-3 blockade reporter assay EC50” value was determined as 1.85 nM.

As to B8, the “LAG-3 blockade reporter assay EC50” value amounted to 1.45 nM.
